T1: Duffy Antigen Receptor for Chemokines (DARC) (human, UniProt Q16570 1-336)
T1 chain: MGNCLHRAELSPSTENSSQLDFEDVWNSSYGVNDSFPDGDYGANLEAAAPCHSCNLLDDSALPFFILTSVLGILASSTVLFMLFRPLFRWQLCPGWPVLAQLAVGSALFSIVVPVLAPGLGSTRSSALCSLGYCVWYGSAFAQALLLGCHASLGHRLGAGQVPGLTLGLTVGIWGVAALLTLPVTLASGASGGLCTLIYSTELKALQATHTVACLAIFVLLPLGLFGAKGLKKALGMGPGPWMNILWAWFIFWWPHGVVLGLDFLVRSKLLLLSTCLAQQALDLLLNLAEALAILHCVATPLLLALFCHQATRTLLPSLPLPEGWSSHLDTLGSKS

T2: Duffy Antigen Receptor for Chemokines (DARC) (human) (UniProt Q16570)
T2 sequence (looked up): T1 chain

T3: Duffy Antigen Receptor for Chemokines (DARC) (human, UniProt Q16570 1-336)
T3 construct: whole, on cells
T3 sequence (looked up): T1 chain

B1: Ser7peptide 3(1-12)[MCP-1] (peptide)
peptide: EICADPSQKWVQ
notes: Mutant of peptide 3; also called Ser7pep3
B2: Leu4Ile11peptide 3(1-12)[MCP-1] (peptide)
peptide: EICLDPKQKWIQ
notes: also called Leu4Ile11pep3; Leu4Ile11peptide 3[MCP-1]
B3: peptide 3(3-12)[MCP-1] (peptide)
peptide: CADPKQKWVQ
notes: also called Pep3[3-12]; Pep3(3-12)[MCP-1]
B4: peptide 2(1-14)[MIP1α] (peptide)
peptide: DYFETSSQCSKPGV
notes: also called Pep2[MIP1α]; Pep2(1-14)[MIP1α]
B5: peptide 2(1-15)[SDF1] (peptide)
peptide: HLKILNTPNCALQIV
notes: also called Pep2[SDF1]; Pep2(1-15)[SDF1]

Bridge positions count the residues as written; N and C are the ends. Square brackets hold non-standard residues; d marks the D form. Ends that are not written are not given here. * marks the point of attachment. Biotin = O=C1N[C@H]2[C@H](CS[C@H]2CCCCC(=O)*)N1

The first assay has as its target chemokine receptors on THP-1 cells. In words: cell-based or functional assay.
The molecule [dC][dQ][dI][dW][dK][dQ][dK][dP][dD][dL][dC] (disulfide 1-11) [CRD-Cys13Leu4Ile11peptide 3(3-12)[MCP-1]] came in with an ED50 for inhibition of MCP-1 induced THP-1 migration of 0.001 µM and an average ED50 for inhibition of THP-1 migration induced by each of the chemokines of 0.1 µM.

The target is the same in a further assay. In words: cell-based or functional assay. This is another data set of the same source.
As to KQKWVQ (also called Pep3[7-12]; KQKWVQ) [peptide 3(7-12)[MCP-1]], the ED50 for inhibition of THP-1 migration versus IL8 was 6 µM, the ED50 for inhibition of THP-1 migration versus MCP1 is 7 µM, the ED50 for inhibition of THP-1 migration versus MIP1α came out at 5 µM and the ED50 for inhibition of THP-1 migration versus SDF1α worked out at 6 µM. Further, the average ED50 for inhibition of THP-1 migration induced by each of the chemokines turned out to be 6 µM.
B1 showed an ED50 for inhibition of THP-1 migration versus IL8 of 3 µM, an ED50 for inhibition of THP-1 migration versus MCP1 of 7 µM, an ED50 for inhibition of THP-1 migration versus MIP1α of 6 µM and an ED50 for inhibition of THP-1 migration versus SDF1α of 4 µM. For the same molecule, the average ED50 for inhibition of THP-1 migration induced by each of the chemokines was 5 µM.
Turning to B2, the ED50 for inhibition of THP-1 migration versus IL8 came to 3 µM, the ED50 for inhibition of THP-1 migration versus MCP1 was 2 µM, the ED50 for inhibition of THP-1 migration versus MIP1α is 1 µM and the ED50 for inhibition of THP-1 migration versus SDF1α came out at 3 µM. The same molecule showed an average ED50 for inhibition of THP-1 migration induced by each of the chemokines of 2 µM and an inhibition of MCP-1 induced migration of 1 µM.
B3 showed an ED50 for inhibition of THP-1 migration versus IL8 of 9 µM, an ED50 for inhibition of THP-1 migration versus MCP1 of 8 µM, an ED50 for inhibition of THP-1 migration versus MIP1α of 7 µM and an ED50 for inhibition of THP-1 migration versus SDF1α of 9 µM. For the same molecule, the average ED50 for inhibition of THP-1 migration induced by each of the chemokines amounted to 8 µM.
On to KEN, for which the % inhibition of migration induced by IL-8 at 100 µM tripeptide was 70% and the % inhibition of migration induced by MCP-1 at 100 µM tripeptide came out at 21%.
In turn, [dC][dQ][dV][dW][dK][dQ][dK][dP][dD][dA][dC] (disulfide 1-11 (inferred); not fully specified; printed as -CQVWKQKPDAC--) [CRD-Cys13pep3[3-12]] had an average ED50 for inhibition of THP-1 migration induced by each of the chemokines of 0.8 µM.
Molecule EICADPSEEWVQ (not fully specified, also called Ser7Glu8Glu9pep3) [Ser7Glu8Glu9peptide 3(1-12)[MCP-1]] gave an ED50 for inhibition of THP-1 migration versus IL8 of 9 µM, an ED50 for inhibition of THP-1 migration versus MCP1 of 7 µM, an ED50 for inhibition of THP-1 migration versus MIP1α of 2 µM and an ED50 for inhibition of THP-1 migration versus SDF1α of 5 µM. This molecule registered an average ED50 for inhibition of THP-1 migration induced by each of the chemokines of 6 µM.
The like results for EICADPKQKWIQ [Ile11peptide 3(1-12)[MCP-1]] were, in that order, 2 µM, 6 µM, 4 µM, 7 µM and 5 µM.
As for WIQ, the average ED50 for inhibition of THP-1 migration induced by each of the chemokines was 2 µM.
Regarding EICADP [peptide 3(1-6)[MCP-1]], the ED50 for inhibition of THP-1 migration versus IL8 is 17 µM, the ED50 for inhibition of THP-1 migration versus MCP1 worked out at 33 µM, the ED50 for inhibition of THP-1 migration versus MIP1α was 25 µM and the ED50 for inhibition of THP-1 migration versus SDF1α stood at 19 µM. The molecule further registered an average ED50 for inhibition of THP-1 migration induced by each of the chemokines of 24 µM.
Regarding SES, the % inhibition of migration induced by RANTES at 100 µM tripeptide is 87%.
In turn, SEE registered a % inhibition of migration induced by MIP1α at 100 µM tripeptide of 65%, an ED50 for inhibition of THP-1 migration induced by the one chemokine it is specific for (MIP1α) of 0.8 µM and an ED50 for inhibition of THP-1 migration versus MIP1α of 6 µM.
In turn, EICLDPKQKWVQ [Leu4peptide 3(1-12)[MCP-1]] yielded an ED50 for inhibition of THP-1 migration versus IL8 of 3 µM, an ED50 for inhibition of THP-1 migration versus MCP1 of 8 µM, an ED50 for inhibition of THP-1 migration versus MIP1α of 7 µM and an ED50 for inhibition of THP-1 migration versus SDF1α of 3 µM. This molecule also yielded an average ED50 for inhibition of THP-1 migration induced by each of the chemokines of 5 µM.

In another assay the target is TGF-beta receptor of THP-1 cells. In words: biotinylated peptide binding to THP-1 cells.
The term EC50 denotes the concentration needed to bring the measured effect to its halfway point. As to HEPKGYHANFC (also: biotinylated (position not given here)) [Biotinylated T2], the EC50 is 30 µM.

The next assay deals with T1, Duffy Antigen Receptor for Chemokines …. Description: DARC binding.
One may read the Kd as the constant that tells how readily two partners part at equilibrium. CPKEAV came in with a dissociation constant Kd greater than 100 µM.
The same measure, in the same setting: the same measure for SYRRITSK: 22 µM.
Same read-out and setting: the same measure for B4: greater than 100 µM; for B5: 19 µM.
Still for that read-out and setting: the same measure for DYFETSSQC: greater than 100 µM.
In turn, CSKPGV displayed a dissociation constant (Kd) greater than 100 µM.
The molecule TSSKC came in with a Kd greater than 100 µM.
With VGPKSCQSSTEFYD, the Kd is greater than 100 µM.
Molecule SYRRI gave a dissociation constant (Kd) greater than 100 µM.

For a further assay, the target named is T2, Duffy Antigen Receptor for Chemokines (DARC) (human). Description: DARC binding on red blood cells; given as 'association constant'.
In turn, [dC][dQ][dI][dW][dK][dQ][dK][dP][dD][dL][dC] (disulfide 1-11) [CRD-Cys13Leu4Ile11peptide 3(3-12)[MCP-1]] came in with a Kd of 90 µM.

The target of another assay is chemokine receptors on THP-1 cells. In words: estimated ka for binding to THP-1 cells, printed under 'AVERAGE ED50 (µM)'.
On to B4, for which the dissociation constant (Kd) is 1 to 10 µM.
Regarding B5, the Kd is 1 to 10 µM.
Regarding ELRVIESGPHCANTEI (also called Pep2[IL8]) [Pep2(1-16)[IL8]], the Kd is 1 to 10 µM.

For another assay the target is unchanged. Description: binding to chemokine receptors on THP-1 cells; given as 'association constant'.
For the molecule [dC][dQ][dI][dW][dK][dQ][dK][dP][dD][dL][dC] (disulfide 1-11) [CRD-Cys13Leu4Ile11peptide 3(3-12)[MCP-1]], the Kd was 0.1 to 0.5 µM.
As for B4, the Kd fell in the range of 0.1 to 0.9 µM.

A further assay addresses T3, Duffy Antigen Receptor for Chemokines …. In words: ka for binding to red blood cells divided by ka for binding to THP-1 cells.
B4: the Duffy selectivity was greater than 100 ratio.
B5 displayed a Duffy selectivity of less than 1 ratio.
The same measure, in the same setting: then ELRVIESGPHCANTEI (also called Pep2[IL8]) [Pep2(1-16)[IL8]], with less than 1 ratio.

A further assay addresses chemokine receptors on THP-1 cells. Description: biotinylated peptide binding to the surface of THP-1 cells; printed as 'ka' in µM.
For the molecule Biotin-EICADPKQKWVQ [N-terminally biotinylated derivative of peptide 3(1-12)[MCP-1]], the Kd was 10 µM.

A further assay concerns the target T2, Duffy Antigen Receptor for Chemokines (DARC) (human). In words: estimated ka for binding to red blood cells divided by average inhibitory ED50 (THP-1 migration).
In the case of [dC][dQ][dV][dW][dK][dQ][dK][dP][dD][dA][dC] (disulfide 1-11 (inferred); not fully specified; printed as -CQVWKQKPDAC--) [CRD-Cys13pep3[3-12]], the Duffy selectivity was 8.82.
Still for that read-out and setting: then [dC][dQ][dI][dW][dK][dQ][dK][dP][dD][dL][dC] (disulfide 1-11) [CRD-Cys13Leu4Ile11peptide 3(3-12)[MCP-1]], with greater than 100; and EICADP [peptide 3(1-6)[MCP-1]], with 5.32.

The next assay addresses T3, Duffy Antigen Receptor for Chemokines …. Described as above. The method, then:
Counts associated with the cells are then determined by gamma-counting scintigraphy. […] Furthermore, Scatchard analysis confirms the presence of a single high affinity binding site with 500–1000 copies per cell, consistent with the known properties of DARC.
The DARC specificity ratio is also determined. The DARC specificity ratio is defined as the estimated ka for association with DARC divided by the $ED50$ for biological activity. […] Thus, it may be difficult to achieve biologically active (as a chemokine inhibitor) concentrations of these peptides in vivo without further modifications of the peptide.
Footnotes [a]'CC-specificity' is the average inhibitory ED$50$ versus SDF1 and IL8 divided by average inhibitory ED$50$ versus MCP-1 and MIP1α. [b]'Duffy selectivity' is the estimated ka for binding to red blood cells divided by average inhibitory ED$50$ versus each of the chemokines (except for peptide 2; see footnote d below). [c]'Average ED$50$' is the average inhibitory ED$50$ for inhibition of THP-1 migration induced by each of the chemokines (except for peptide 2; see footnote e below). [d]For the peptide 2 family, the 'average ED$50$' is the estimated ka for binding to THP-1 cells. [e]For the peptide 2 family, the 'Duffy selectivity' is calculated as the ka for binding to red blood cells divided by the ka for binding THP1-1 cells. [f]For tripeptide derivatives so marked, the peptide is highly specific for one of the four exemplary chemokines.
Turning to KQKWVQ (also called Pep3[7-12]; KQKWVQ) [peptide 3(7-12)[MCP-1]], the Duffy selectivity is 2.94 ratio.
The same measure, in the same setting: then B1, with 2 ratio; and B2, with 37.8 ratio.
Same read-out and setting: then B3, with 1.21 ratio; and EICADPSEEWVQ (not fully specified, also called Ser7Glu8Glu9pep3) [Ser7Glu8Glu9peptide 3(1-12)[MCP-1]], with 0.59 ratio.

The values above are taken from patent US7067117 (CAMBRIDGE UNIVERSITY TECHNICAL SERVICES, dated 2006).
